According to patent US20220119793A1:

Target: α-thrombin
Experiment: cell-based or functional assay

maximal second-order rate constant (k2) of thrombin inhibition, at ~20 µg/mL heparin: 3e+08 M⁻¹ min⁻¹
Substance: human heparin cofactor II 60-sTyr-73-sTyr (from UniProt P05546 20-499)
